Assay [1] concerns the target human oxytocin receptor (human) (UniProt P30559). Briefly: cell-based or functional assay.
For assay [2], the target named is human vasopressin V1b receptor (human) (UniProt P47901). Nature of the assay: cell-based or functional assay.
In assay [3] the target is human vasopressin V1a receptor (human) (UniProt P37288). Nature of the assay: cell-based or functional assay.
For assay [4], the target named is human oxytocin receptor (human) (UniProt P30559). Nature of the assay: radioligand displacement (3H-OT), SPA beads, COS-1 membranes. In general terms: Loss of bound radioactivity is the signal in a displacement assay; it reports binding, not function.
Assay [5] has as its target human vasopressin V1b receptor (human) (UniProt P47901). Nature of the assay: radioligand displacement (3H-AVP), WGA SPA beads, COS-1 membranes.
In assay [6] the target is human vasopressin V1a receptor (human) (UniProt P37288). Briefly: radioligand displacement (125I-V1a linear antagonist), SPA beads, COS-1 membranes.
Assay [7] concerns the target human vasopressin V2 receptor (human) (UniProt P30518). Briefly: radioligand displacement (3H-AVP), filtration, HEK293 membranes.

Sequence of human vasopressin V1a receptor (human) (P37288 whole entry): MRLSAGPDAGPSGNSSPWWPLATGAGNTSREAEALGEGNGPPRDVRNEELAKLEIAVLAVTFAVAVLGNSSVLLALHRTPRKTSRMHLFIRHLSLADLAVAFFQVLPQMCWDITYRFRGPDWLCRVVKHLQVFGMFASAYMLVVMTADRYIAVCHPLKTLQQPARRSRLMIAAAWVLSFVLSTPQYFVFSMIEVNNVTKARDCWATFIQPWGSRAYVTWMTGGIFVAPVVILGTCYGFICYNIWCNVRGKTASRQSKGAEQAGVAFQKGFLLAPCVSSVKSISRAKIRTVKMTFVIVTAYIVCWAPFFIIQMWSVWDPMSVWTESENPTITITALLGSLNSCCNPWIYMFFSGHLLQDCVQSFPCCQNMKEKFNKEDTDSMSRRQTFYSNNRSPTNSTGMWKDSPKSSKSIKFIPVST
Sequence of human oxytocin receptor (human) (P30559 whole entry): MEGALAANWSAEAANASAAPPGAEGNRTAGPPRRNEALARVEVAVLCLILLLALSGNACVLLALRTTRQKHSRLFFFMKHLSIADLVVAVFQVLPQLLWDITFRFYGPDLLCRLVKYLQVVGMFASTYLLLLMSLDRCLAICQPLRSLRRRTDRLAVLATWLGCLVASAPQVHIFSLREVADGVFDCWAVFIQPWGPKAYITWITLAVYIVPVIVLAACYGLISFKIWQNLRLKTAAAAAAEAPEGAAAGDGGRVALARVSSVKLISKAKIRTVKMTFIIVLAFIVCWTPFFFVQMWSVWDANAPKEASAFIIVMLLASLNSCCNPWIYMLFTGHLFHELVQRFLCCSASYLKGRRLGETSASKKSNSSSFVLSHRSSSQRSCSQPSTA
Sequence of human vasopressin V1b receptor (human) (P47901 whole entry): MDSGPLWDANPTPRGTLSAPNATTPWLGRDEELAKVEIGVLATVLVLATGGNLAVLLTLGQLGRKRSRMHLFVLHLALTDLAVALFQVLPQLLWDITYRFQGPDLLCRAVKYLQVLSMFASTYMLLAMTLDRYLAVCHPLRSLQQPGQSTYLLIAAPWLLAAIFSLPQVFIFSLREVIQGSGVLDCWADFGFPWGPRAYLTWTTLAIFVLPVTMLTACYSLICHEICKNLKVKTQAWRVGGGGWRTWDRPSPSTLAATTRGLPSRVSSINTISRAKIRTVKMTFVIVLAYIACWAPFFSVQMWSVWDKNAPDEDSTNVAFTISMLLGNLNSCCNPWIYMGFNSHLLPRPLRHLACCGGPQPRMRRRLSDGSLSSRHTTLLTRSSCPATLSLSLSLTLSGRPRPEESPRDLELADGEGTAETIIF

In the case of [C1,6U]-OT (peptide), the EC50, FLIPR calcium assay was 1.39 nM in assay [1], 7.75 nM in assay [2] and 35.9 nM in assay [3]. The EC50, IP-One HTRF assay in assay [1] amounted to 18 nM; in assay [2], 510 nM; in assay [3], 269 nM. Besides, the Emax, FLIPR calcium assay in assay [1] was 86%; in assay [2], 82%; in assay [3], 100%. The Emax, IP-One HTRF assay in assay [1] is 94%; in assay [2], 103%; in assay [3], 70%. Moreover, the IC50 (as a rule, the midpoint of a concentration-inhibition curve) in assay [4] worked out at 538 nM; in assay [5], 1760 nM; in assay [6] it was 127 nM; in assay [7] it was 3350 nM.
Turning to [C1,6U]-OT-OH (peptide), in assay [2], the EC50, FLIPR calcium assay is 2460 nM; the EC50, IP-One HTRF assay was greater than 100000 nM; the Emax, FLIPR calcium assay came to 63%.
In the case of [CH2-S]-OT (peptide), the Emax, IP-One HTRF assay is 64% in assay [1] and 75% in assay [3].
Turning to [Te-Te]-Oxytocin (peptide), in assay [1], the EC50, FLIPR calcium assay was found to be 11.3 nM; the EC50, IP-One HTRF assay stood at 13.3 nM; the Emax, FLIPR calcium assay was 86%; the Emax, IP-One HTRF assay is 98%. In addition, in assay [3], the EC50, FLIPR calcium assay was 4280 nM and the EC50, IP-One HTRF assay was greater than 10000 nM. The substance further had an IC50 in assay [4] of 8 nM.
As to dOT (peptide), in assay [1], the EC50, FLIPR calcium assay amounted to 0.39 nM; the EC50, IP-One HTRF assay amounted to 0.71 nM; the Emax, FLIPR calcium assay was determined as 89%; the Emax, IP-One HTRF assay worked out at 100%. Further, in assay [3], the EC50, FLIPR calcium assay is 46.1 nM and the Emax, FLIPR calcium assay turned out to be 54%. In assay [4], this substance registered a concentration for half-maximal inhibition (IC50) of 1.7 nM.

These data come from US20130130985A1.
